Assay results as given in patent publication US20210255205A1, “COMPOSITIONS AND METHODS FOR TREATING METABOLIC DISEASE” (THE REGENTS OF THE UNIVERSITY OF CALIFORNIA, priority 2018, published 2021).

B1: Aster-B: purified recombinant ASTER domain of mouse Aster-B (protein, UniProt Q80TI0 224-560, looked up, fragment)
chain: NELGLTSDDEDYVPPDDDFNTMGYCEEIPIEENEVNDSSSKSSIETKPDASPQLPKKSITNSTLTSTGSSEAPVSFDGLPLEEEVMEGDGSLEKELAIDNIIGEKIEIMAPVTSPSLDFNDNEDIPTELSDSSDTHDEGEVQAFYEDLSGRQYVNEVFNFSVDKLYDLLFTNSPFLRDFMEQRRFSDIIFHPWKKEENGNQSRVILYTITLTNPLAPKTATVRETQTMYKASQESECYVIDAEVLTHDVPYHDYFYTINRYTLTRVARNKSRLRVSTELRYRKQPWGFVKTFIEKNFWSGLEDYFRHLETELTKTESTYLAEIHRQSPKEKASKSSA
modifications: ASTER domain
B2: Aster-A: purified recombinant ASTER domain of mouse Aster-A (protein, UniProt Q8VEF1 261-576, looked up, fragment)
chain: AADHSQEPSPVGSRRGRVTPNLSRASSDADHGAEEDKEEQTDGLDASSSQTVTPVAEPLSSEPTPPDGPTSSLGPLDLLSREELLTDTSNSSSSTGEEGDLAALLPDLSGRLLINSVFHMGAERLQQMLFSDSPFLQGFLQQRKFTDVTLSPWSSDSKCHQRRVLTYTIPISNQLGPKSASVVETQTLFRRGPQAGGCVVDSEVLTQGIPYQDYFYTAHRYCILGLARNKARLRVSSEIRYRKQPWSLVKSLIEKNSWSGIEDYFHHLDRELAKAEKLSLEEGGKDTRGLLSGLRRRKRPLSWRGHRDGPQHPDPD
modifications: ASTER domain
B3: Aster-C: purified recombinant ASTER domain of mouse Aster-C (protein, UniProt Q8CI52 206-528, looked up, fragment)
chain: MEHLLSVEENVQPRSPGRSSVDDAGERDEKFSKAVSFTQESVSRASETEPLDGNSPKRGLGKEDSQSERNVRKSPSLASEKRISRAPSKSLDLNKNEYLSLDKSSTSDSVDEENIPEKDLQGRLYINRVFHISAERMFELLFTSSHFMQRFANSRNIIDVVSTPWTVESGGNQLRTMTYTIVLSNPLTGKYTAATEKQTLYKESREAQFYLVDSEVLTHDVPYHDYFYTLNRYCIVRSAKQRCRLRVSTDLKYRKQPWGLIKSLIEKNSWSSLESYFKKLESDLLMEESVLSQSIEDAGKHSSLRRRRRTLNRTAEPVPKLSS
modifications: ASTER domain

Experiment: in vitro cholesterol transfer between heavy and light liposomes
Format: biochemical
Settings: purified recombinant ASTER domain, 15 min under agitation
Description: Values are means±SEM. […] Input (Ctrl) served as a control for LXR enrichment. […] Values are means±SEM. […] Results values are means±SD. […] Results values are means±SD. […] Values are means±SEM.
Liposomes were generated by drying lipids in glass tube under liquid nitrogen. Lipid films were then resuspended in 50 mM hepes, 120 mM potassium acetate buffer ±0.75M sucrose where indicated. Lipid suspensions were then vortexed and incubated for 30 minutes at 37° C. (2 mM total lipid concentration). Suspensions were then snap frozen in liquid nitrogen and thawed rapidly at 37° C. five times. Light liposomes were prepared by extruding through 100 nm polycarbonate filters. Heavy liposomes containing sucrose were prepared by extruding through a 400 nm polycarbonate filter, then washing several times in 50 mM hepes, 120 mM potassium acetate buffer with no sucrose. Liposome sizes were confirmed using an N4 Dynamic Light Scattering instrument.
To test the ability of the ASTER domain to transfer cholesterol between membranes, an in vitro assay was optimized with heavy and light liposomes. Purified recombinant ASTER domain was incubated with “heavy” PC/dansyl-PE liposomes and “light” PC/cholesterol/dansyl-PE liposomes under agitation for 15 min. The liposomes were separated by centrifugation, and cholesterol levels were determined. Dansyl-PE intensities of heavy liposomes were used to normalize the cholesterol values.
In the case of B1, the “cholesterol transfer to the heavy liposomes” value (“cholesterol transfer” for short) is reported as “efficiently facilitated cholesterol transfer”.
With B2 the “cholesterol transfer” value was “efficiently facilitated cholesterol transfer”.
With B3 the “cholesterol transfer” value was “efficiently facilitated cholesterol transfer”.
